# B1: mAb BE1 (whole mouse antibody) (antibody, V domains shown)
# VH: EVQLVESGGGLVQPKGSLKLSCATSGFTFNTFDMHWVRQAPGKDLEWVARIRTKGNSYATYYAASVKDRITISRDDSQSMLYLEMNSLRSEDTAMYYCVREGGHYYGYYFDFWGQGTTLTVSS
# VL: EIQMTQTTSSLSASLGDRVTISCRASQDIYNYLNWYQQQPDGAVKLLIYYTSKLHSGVPSRFSGSGSGTDYSLTITNLEQEDIATYFCQQGYTLPYTFGGGTKLEIK
# Biological target: A/New Caledonia/20/1999 (H1N1) hemagglutinin, truncated recombinant HA (Influenza A virus A/New …, UniProt Q6WG00, strain)
# Test: ELISA
binder,measurement,value
B1,binding result,binds

# Source: publication PMC11316637 (Structure (London, England : 1993), 2024)
